Assay: soluble on expression in E. coli; label from the status in PepcDB or PDB records

Sequence	soluble on expression in E. coli
MPKVISQKEFNILSRTKERVNFQIVYTKQRNGLHKAAKEYFFKDKDFTIIEDTPDTPDQPDGPCITKGPKEPGGPEEPNGPDKPEDPKDPDTPDVSEGPKEQGGQKDPGGPDDPSEGKQKVSKPDKYVTHRELDEKLKDFATKADFKRVEDKVDVLFELQKTQGEQIKVQGEQIKAQGKQIEQLTETVKVQGEQIRAQGEQIKAQSEEIKEIKVEQKAQGEQIKELQVEQKAQGKTLQLILKTLEKMNERLEKLESK	soluble
MPKVNLYATFRDLTGKSQLELPGATVGEVLENLVRAYPALKEELFEGEGLAERVSVFLEGRDVRYLQGLSTPLSPGATLDLFPPVAGGGFERTFGAFPPWLLERYLEEWGGTREGEGVYRLPGAVVRFREVEPLKVGSLSIPQLRVEVEGEEAERWFERIAFAASRGGG	soluble
MPLENVMTDLKASSLRALKLMDLTTLNDDDTNEKVIALCHQAKTPVGNTAAICIYPRFIPIARKTLKEQGTPDIRIATVTNFPHGNDDIDIALAETRAAIAYGADEVDVVFPYRALIAGNEQVGFDLVKACKDACAAANVLLKVIIETGELKEEALIRKASEISIKAGADFIKTSTGKVPVNATPESARIMMEVIRDMGVSKTVGFKPAGGVRTAEDAQKFLAIADELFGADWADSRHYRFGASSLLASLLKALGHGDGKSASSY	not soluble
MPLSAQQLAAQKNLSYVLAEKLAQRILKGDYAPGTILPGEIELGEQYGVSRTAVREAVKTLTAKGMVLPRPRIGTRVMPQGNWNFLDQELLTWWMTEENFHQVVEHFLVMRISLEPQACLLAATLGTPEQKARLNALMEEMVALKKHFKRERWIEVDMAWHEHIYEMSANPFLISFATLFHSVYHTYFTSITYNEVVKLDLHQAIVDAIADGDGERAFQACQALLIAPNERPDN	not soluble
MPLYVIDKPITLHILTQLRDKYTDQINFRKNLVRLGRILGYEISNTLDYEIVEVETPLGVKTKGVDITDLNNIVIINILRAAVPLVEGLLKAFPKARQGVIGASRVEVDGKEVPKDMDVYIYYKKIPDIRAKVDNVIIADPMIATASTMLKVLEEVVKANPKRIYIVSIISSEYGVNKILSKYPFIYLFTVAIDPELNNKGYILPGLGDAGDRAFG	soluble
MPMVLVVLDHDGNRLKKGSLEALTRARDLAQALGGKVAGVLLAEEKAPVEEARKYVEVLYTATLGPYTAEKWAAGVLKAAEASGAKAVVAPSSRQSRAYLGRVAYALRAGLLEDTLESRVEGGEVHATRYAYLNRVTQRVKAALPVVLTVKPNTTPLAEPLPGEAEAVALSVPEVPTVEVLERLQEEKKGVSLTEADVVVTGGRGMGSPEAFKLVEELAALLGGAVGATRAVVDAGWRPYAEQVGQTGKTVQPSLYIALGVSGAVQHLAGMNKSKYIVAVNKDPEAPIFKHADYGIVGDVHQVLPALIEAVKKLKD	soluble
MPNHLAGETSPYLLQHAENPVDWYPWGEEALEIARMLDKPILLSIGYSACHWCHVMAHESFEDAQVATAMNEHFVNIKVDREERPDIDQIYQSAHYTLNHRSGGWPLTMFLTPEQKPFFGGTYFPKEARYSMPGFLELLPKVAELYRTRKTDIEKQNA	not soluble
MPNNISKSAIIKEGVIIGENVTIEDNVYIDYGCIIRDNVHIKKGSFIGARSILGEYLVDFYNDRINKKHPLIIGENALIRTENVIYGDTIIGDNFQTGHKVTIRENTKIGNNVKIGTLSDIQHHVYIGNYVNIHSNVFVGEKSIIKDFVWLFPHVVLTNDPTPPSNELLGVTIELFAVIAARSVVLPGIHINEDALVGAGAVVTKDVPKETVVVGNPAREICSIRKIKNKITGEQVYPWRYTFKRGMPWEETDYDTWIKNISIENLEHHHHHH	soluble
MPNRHGSPRSSTRWAGLAIIALACLLSACSSTPTRSLTSRDTSGQRTHGAAINDPSAGLEEISIEAMALVGTPYRYGGNTPDSGFDCSGLVRYVVQRAASVNLPRTAAEMGTRGFALERRDVASGDLVFFNTTGRPNSHVGIYVGQNRFVHAPATGGTVRLEDMSKRYWASRYMGARRVVAVSNLPDLPASPAAATQSIAAGAAAPATAPAHANDDDPLGTLARARGTESSPLMSTRNAAPVVVPPADDDPIARFATQ	soluble
MPNRPDLCLGVMSIELRHLRAAVAIAEAGSFTAAANALHITQPALTRTVQQLETSLGVRLFDRTSRALALTEDGAGFVEKVRVILGDLDSAVALYTNRSLVLGFSWLLPDPWAQQVIDDVEKNSRATVVPRRYDDPVAALNNATVDAAVVRRDVPGDEFVQHPLFEEQRIAAVSTASPLATRESIDWAEFGTLPLVINTLSGTTSEDLWPNHDGPVVTCSNFDDWLELIAADRGVGTVPEVARRRVTHRNVQFIPLVGAPPAVVRFVYRRNRVTPLLRVLRDAAIRHSPPPGSVTVGQHD	not soluble
MPPKKQQEVVKVQWGRPGNNLKTGIVGMPNVGKSTFFRAITKSVLGNPANYPYATIDPEEAKVAVPDERFDWLCEAYKPKSRVPAFLTVFDIAGLTKGASTGVGLGNAFLSHVRAVDAIYQVVRAFDDAEIIHVEGDVDPIRDLSIIVDELLIKDAEFVEKHLEGLRKITSRGANTLEMKAKKEEQAIIEKVYQYLTETKQPIRKGDWSNREVEIINSLYLLTAKPVIYLVNMSERDFLRQKNKYLPKIKKWIDENSPGDTLIPMSVAFEERLTNFTEEEAIEECKKLNTKSMLPKIIVTGYNALNLINYFTCGEDEVRSWTIRKGTKAPQAAGVIHTDFEKAFVVGEIMHYQDLFDYKTENACRAAGKYLTKGKEYVMESGDIAHWKAGKR	soluble
MPQLSIIIPLFNSCNFISRALQSCINQTLKDIEILIIDDKSKDNSLNMVLEFAKKDPRIKIFQNEENLGTFASRNLGVLHSSSDFIMFLDSDDFLTLDACKIALKEMKKGFDLLCFDAFVHRVKTKQFYRFKQDEFFNQKEFLEFLSKQRHFCWSVWAKCFRKDIILKSFEKIKIDERLSYGEDVLFCYVYFMFCEKIAVFKTCIYHYEFNPNGRYENKNKEILWQNYQDKKKSNELVKKLCLNFKNNDFHKKLFEVLEKEEFDLQRRVDEARNLEHHHHHH	soluble
MPQPESENLSVKLFKNHKQALETSGLVPYLPSSLEQLEQSGRTWYRELRRPQWIWQGVDAIELESILARIANSQKHRSRDEWLDTVSGYHSGNWAYEWIHAGMEHQKTASELDGDEAAEAYFKASLYFSVAGYPHIKGDNLAIQSQVLASQAYDMAAKQTSHRVEKILVPYQGRKITCYLHLPNTEKPLPVVIVSGGMDSLQTDMWRLYRDFLAPNNMAMLTLDMPSIGHSSHWPLSEDSSCLHQAVLNYLPNIPWVDRFHAAVMGFRFGGNVALRLSFLEPSRLKACVALGAPVHQILTNSARLKTMPKMYLDVLASRLAKQVVDINSLTSQMQAWSLKNQGFLSGGRKTSVSVLAIGLKDDPVSPKSDNKLAALFSKYGKGVELNSKTLHSGYEEALKQMIEWIKEEMKQ	not soluble
MPQTPPFPVMYGSTNGYNKNLYKAKEEDYEGLYYHDNNLISGSLEALIEHLVPTVAYYPDRTYIFTFLLSSRLFLHPYELMSKVCHLCVDQQRLSDPQADKARVRKIAPKILQLLTEWTETFPYDFRDERMMKSLKELTHRLSTGEDLYRKAVQQMTQTLIRKLTTLSQYEEALAKINSSVTDRLTVLKTKPQSIQRDILTICNDPFTLAQQLTHIELERLSYIGPEEFVQAFVQKDPLDNDKNCFSDHKKASNLEAYVEWFNRLSYLVATEICMPVKKKHRARVIEFFIDVARECFNIGNFNSLMAIITGMNMSPVSRLKKTWAKVKTAKFDILEHQMDPSSNFYNYRTALRGATQRSITAHSSREKIVIPFFSLLIKDIYFLNEGCANRLPNGHVNFEKFWGLAKQVTEFMTWKKVECPFDRDRKILQYLLTAPVFSEDALYLASYESEGPENNMEKDRWKSLRSSLLNRT	soluble
MPRLFLTSDLDSFPVTPQGCSVTLACGVRLQFPAGATATPITIRYRLLLPEPGLVPLGPHDALLSHVLELQPHGVAFQQDVGLWLLFTPPQARRCREVVVRTRNDNSWGDLETYLEEEAPQRLWAHCQVPHFSWFLVVSRPVSNACLVPPEGTLLCSSGHPGVKVIFPPGATEEPRRVSMQVVRMAGRELQALLGEPEAAVSPLLCLSQSGPPSFLQPVTVQLPLPSGITGLSLDRSRLHLLYWAPPAATWDDITAQVVLELTHLYARFQVTHFSWYWLWYTTKNCVGGLARKAWERLRLHRVNLIALQRRRDPEQVLLQCLPRNKVDATLRRLLERYRGPEPSDTVEMFEGEEFFAAFERGIDVDADRPDCVEGRICFVFYSHLKNVKEVYVTTTLDREAQAVRGQVSFYRGAVPVRVPEEAEAARQRKGADALWMATLPIKLPRLRGSEGPRRGAGLSLAPLNLGDAETGFLTQSNLLSVAGRLGLDWPAVALHLGVSYREVQRIRHEFRDDLDEQIRHMLFSWAERQAGQPGAVGLLVQALEQSDRQDVAEEVRAVLELGRRKYQDSIRRMGLAPKDPALPGSSAPQPPEPAQA	soluble
MPRVNIGPDNNAQIEITTLQSQSKSRKLKKIKMASGSERVVVVGVDDSAHSYHALETALDLFFIPFKANPRFKLVVLHARPTATFFLGVAGPGTVDIIPMVEEDLNKTADLVKKKCAEVCSAKSVEISSLEVIEGDPRNIMLEAVERHHA	soluble
MPRVWKFGDQINTDDILPGKYAPFMVGEDRFHLYAFAHLRPEFAKEVRPGDILVFGRNAGLGSSREYAPEALKRLGIRAIIAKSYARIFFRNLVNLGIVPFESEEVVDALKDGDEVELDLESGVLTRGEERFLLRPPPPFLLEALKEGSLLDYYKKHGRFPGE	soluble
MPSEKEDDVMKNVTFAEGKKFGDWKIGKTIDEGGFGKVYIATSISDPKKVAALKAESNEIEGGSAIKLEAMILNKLNANGPVPHIPVVHLCAKRKLYCYMVMTLLGRNLRKLKSTNLVVNNGFSRGTWSRIGIQCLYALKYVHDNGFIHRDVKPQNFLLGNETDSERARIVHILDFGLARPFAVFHARENKWIARRARGTAEFRGTLRYTSPNVHLRKEQGRVDDVWSLLYVIIELNGGKALPWQTDSQRERVEQMKLNLPAKVVMSNMPACMDKVMPHLASLDYYQRPDYHMIFKCFWQVMENEKITPSSKYDWEKDEPDKSVPPASWENPAGPFFQSDPLGINAPPTPAEAALTEKSGKKHGKK	soluble
MPSGVDGVGLLVRWLIEGSRGGVTRARILMLLRERPRNAHQLSQELGLNYRTVLHHLEVLARHGLIARLYEGYGAPYALTNLAERHWSVIEDSIRRVGVRL	not soluble
MPSISPASDADRALVIGSGLGGLAAAMRLGAKGWRVTVIDKLDVPGGRGSSITQEGHRFDLGPTIVTVPQSLRDLWKTCGRDFDADVELKPIDPFYEVRWPDGSHFTVRQSTEAMKAEVARLSPGDVAGYEKFLKDSEKRYWFGYEDLGRRSMHKLWDLIKVLPTFGMMRADRSVYQHAALRVKDERLRMALSFHPLFIGGDPFNVTSMYILVSQLEKEFGVHYAIGGVAAIAAAMAKVIEGQGGSFRMNTEVDEILVEKGTATGVRLASGEVLRAGLVVSNADAGHTYMRLLRNHPRRRWTDAHVKSRRWSMGLFVWYFGTKGTKGMWPDVGHHTIVNAPRYKGLVEDIFLKGKLAKDMSLYIHRPSITDPTVAPEGDDTFYALSPVPHLKQAQPVDWQAVAEPYRESVLEVLEQSMPGIGERIGPSLVFTPETFRDRYLSPWGAGFSIEPRILQSAWFRPHNISEEVANLFLVGAGTHPGAGVPGVIGSAEVMAKLAPDAPRARREAEPAERLAAELEHHHHHH	not soluble

— the DeepSol protein solubility set
